# Assay results published in patent US20250172568A1 (TRUSTEES OF DARTMOUTH COLLEGE, published 2025).
# B1: afucosylated BB7.2 IgG1 (HLA-A2-specific chimeric mAb) (antibody)
# heavy: not shown
# light: DVLMTQTPLSLPVSLGDQVSISCRSSQSIVHSNGNTYLEWYLQKPGQSPKLLIYKVSNRFSGVPDRFSGSGSGTDFTLKISRVEAEDLGVYYCFQGSHVPRTFGGGTKLEIKRADAAPTVSIFPPSSEQLTSGGASVVCFLNNFYPKDINVKWKIDGSERQNGVLNSWTDQDSKDSTYSMSSTLTLTKDEYERHNSYTCEATHKTSTSPIVKSFNRNEC
# notes: also called afucosylated IgG1; afucosylated HLA-A2 mAb
# B2: BB7.2 IgG3 (HLA-A2-specific chimeric mAb, unmodified / fucosylated) (antibody)
# heavy: QVQLQQSGPELVKPGASVKMSCKASGYTFTSYHIQWVKQRPGQGLEWIGWIYPGDGSTQYNEKFKGKTTLTADKSSSTAYMLLSSLTSEDSAIYFCAREGTYYAMDYWGQGTSVTVSSAKTTPPSVYPLAPGCGDTTGSSVTLGCLVKGYFPESVTVTWNSGSLSSSVHTFPALLQSGLYTMSSSVTVPSSTWPSQTVTCSVAHPASSTTVDKKLELKTPLGDTTHTCPRCPEPKSCDTPPPCPRCPEPKSCDTPPPCPRCPEPKSCDTPPPCPRCPAPELLGGPSVFLFPPKPKDTLMISRTPEVTCVVVDVSHEDPEVQFKWYVDGVEVHNAKTKPREEQYNSTFRVVSVLTVLHQDWLNGKEYKCKVSNKALPAPIEKTISKTKGQPREPQVYTLPPSREEMTKNQVSLTCLVKGFYPSDIAVEWESSGQPENNYNTTPPMLDSDGSFFLYSKLTVDKSRWQQGNIFSCSVMHEALHNRFTQKSLSLSPGK
# light: B1 light
# notes: also called HLA-A2 IgG3 mAb; unmodified HLA-A2 mAb
# B3: afucosylated BB7.2 IgG3 (HLA-A2-specific chimeric mAb) (antibody)
# heavy: B2 heavy
# light: B1 light
# notes: also called afucosylated IgG3; afucosylated HLA-A2 mAb
# B4: BB7.2 IgG1 (HLA-A2-specific chimeric mAb, unmodified / fucosylated) (antibody)
# heavy: not shown
# light: B1 light
# notes: also called HLA-A2 IgG1 mAb; unmodified HLA-A2 mAb
# Legend:
# FcγRI = target: T1, FcγRI (human, UniProt P12314 16-288); assay: BLI (Octet), mAb on HLA-A2 antigen tips, 292 nM FcγRI in solution
# T1 construct: also called human FcγRI
# Experimental: High Precision Streptavidin 2.0 (SAX2) biosensor tips (Sartorius) were used to determine the kinetics of HLA-A2-specific IgG binding to human FcγRIIIa and FcγRI by biolayer interferometry (BLI) on an Octet (Forte Bio) instrument. Streptavidin (SA) biosensor tips were first loaded with HLA-A2 antigen, followed by HLA-A2 antibody, and finally dipped into FcγR to study the antibody-receptor kinetics. Biosensors were equilibrated with 0.05% Tween-PBS for 60 s, loaded with 0.25 μg/mL biotinylated HLA-A2 antigen (in 0.05% Tween-PBS) until they reached the threshold of 1 nm, and then dipped into 0.05% Tween-PBS to reach baseline for 60 s. […] To improve signal to noise, serum IgG was purified using Melon gel (Thermo) according to the manufacturer's instructions. Polyclonal serum IgG was loaded for 2,400 s. For FcγR dissociation rate (kd) determination, two SAX2 biosensor tips were used, one for the measurement and one as a reference to subtract background signal changes due to dissociation of other components, such as dissociation of HLA-A2-specific IgG from biotinylated HLA. Reference biosensors loaded with IgGs were dipped into buffer (0.05% Tween-PBS) instead of receptors. Finally, the sensors were dipped into 0.05% Tween-PBS for 180 s and 300 s for the dissociation of FcγRIIIa and FcγRI, respectively.
# [1] = target: T2, FcγRIIIa V158 (recombinantly expressed, monomeric) (human, UniProt P08637 17-208); assay: BLI (Octet), mAb on HLA-A2 antigen tips, monomeric FcγRIIIa V158; dissociation rate printed as 'KD'; the value is the MEAN over afucosylated IgG1 and IgG3
# T2 construct: also called biotinylated FcγRIIIa V158 tetramers
# Text: (§1) Antibody-Receptor dissociation kinetics measurement by Biolayer Interferometry (BLI). […] Streptavidin tips were first coated with biotinylated HLA-A2 antigens. After establishing a signal baseline, the tips were loaded with HLA-A2-specific antibodies, dipped into the buffer for baseline, and then finally dipped into a solution of recombinantly expressed FcγRIIIa V158 monomers. Following receptor association, tips were dipped into a buffer, which allowed receptor dissociation. The dissociation rate of FcγR was defined relatively to a reference tip which was not dipped into the receptor.
# (§2) High Precision Streptavidin 2.0 (SAX2) biosensor tips (Sartorius) were used to determine the kinetics of HLA-A2-specific IgG binding to human FcγRIIIa and FcγRI by biolayer interferometry (BLI) on an Octet (Forte Bio) instrument. Streptavidin (SA) biosensor tips were first loaded with HLA-A2 antigen, followed by HLA-A2 antibody, and finally dipped into FcγR to study the antibody-receptor kinetics. Biosensors were equilibrated with 0.05% Tween-PBS for 60 s, loaded with 0.25 μg/mL biotinylated HLA-A2 antigen (in 0.05% Tween-PBS) until they reached the threshold of 1 nm, and then dipped into 0.05% Tween-PBS to reach baseline for 60 s. […]
# [2] = target: T2, FcγRIIIa V158 (recombinantly expressed, …); assay: BLI (Octet), mAb on HLA-A2 antigen tips, monomeric FcγRIIIa V158; dissociation rate printed as 'KD'; the value is the MEAN over unmodified IgG1 and IgG3
# Text: as §1, §2
# T2 sequence (P08637 17-208 F176V limits assumed): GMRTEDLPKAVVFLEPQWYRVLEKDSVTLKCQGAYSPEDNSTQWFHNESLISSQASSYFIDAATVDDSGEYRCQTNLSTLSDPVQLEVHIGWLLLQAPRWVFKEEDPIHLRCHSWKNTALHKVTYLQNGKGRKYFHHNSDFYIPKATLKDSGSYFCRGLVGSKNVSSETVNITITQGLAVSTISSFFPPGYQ
# T1 sequence (P12314 16-288 limits assumed): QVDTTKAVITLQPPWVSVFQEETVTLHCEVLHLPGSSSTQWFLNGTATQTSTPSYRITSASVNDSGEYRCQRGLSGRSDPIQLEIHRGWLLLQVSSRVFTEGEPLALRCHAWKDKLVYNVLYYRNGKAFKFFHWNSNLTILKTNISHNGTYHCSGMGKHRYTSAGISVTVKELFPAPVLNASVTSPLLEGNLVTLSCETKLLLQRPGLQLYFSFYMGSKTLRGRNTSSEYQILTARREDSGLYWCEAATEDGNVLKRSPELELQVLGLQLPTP
Binder,binding result (FcγRI),koff [1] [s⁻¹],koff [2] [s⁻¹]
B1,binds,0.021,–
B2,binds,–,0.46
B3,binds,0.021,–
B4,binds,–,0.46
